From patent US20230025732A1 (INNATE PHARMA, published 2023)

Experiments:
murine CD39 on CHO cells = target: T1, murine CD39 on CHO cells (murine, UniProt P55772 1-510); test: flow cytometry titration on CHO cells expressing murine CD39 (Mediane of Fluo), panel CHO-moCD39
T1 construct: whole, on cells; also called CHO-moCD39; moCD39
T1 sequence (looked up): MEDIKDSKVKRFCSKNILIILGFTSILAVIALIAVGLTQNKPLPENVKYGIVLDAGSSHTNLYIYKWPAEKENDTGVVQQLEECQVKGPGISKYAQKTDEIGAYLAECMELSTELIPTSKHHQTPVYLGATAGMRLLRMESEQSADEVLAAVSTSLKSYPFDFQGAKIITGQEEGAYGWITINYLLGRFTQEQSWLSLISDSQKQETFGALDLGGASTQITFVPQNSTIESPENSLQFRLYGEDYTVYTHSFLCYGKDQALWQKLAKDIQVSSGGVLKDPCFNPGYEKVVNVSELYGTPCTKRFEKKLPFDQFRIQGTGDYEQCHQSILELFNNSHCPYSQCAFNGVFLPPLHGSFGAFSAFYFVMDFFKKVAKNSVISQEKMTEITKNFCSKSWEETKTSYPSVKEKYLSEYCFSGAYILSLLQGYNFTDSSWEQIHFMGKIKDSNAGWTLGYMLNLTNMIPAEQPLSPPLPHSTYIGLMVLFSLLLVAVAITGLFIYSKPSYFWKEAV
Method: Cells were incubated with various concentration of unlabeled anti-CD39 antibody from 30 μg/ml to 5×10⁻⁴ μg/ml, for 30 minutes at 4° C. After washes, cells were incubated with Goat anti-mouse H+L labeled secondary antibody for 30 min at 4° C.

[1] = target: T2, human CD39 expressed at the cell surface (human, UniProt P49961 1-510); test: flow cytometry titration on Ramos lymphoma cells (Mean of Fluorescence), panels L0, L1 and L1*
T2 construct: On CHO transfectants, Hek-293T transfectants, Ramos and Mino tumor cells; also called huCD39; CHO-huCD39
T2 sequence: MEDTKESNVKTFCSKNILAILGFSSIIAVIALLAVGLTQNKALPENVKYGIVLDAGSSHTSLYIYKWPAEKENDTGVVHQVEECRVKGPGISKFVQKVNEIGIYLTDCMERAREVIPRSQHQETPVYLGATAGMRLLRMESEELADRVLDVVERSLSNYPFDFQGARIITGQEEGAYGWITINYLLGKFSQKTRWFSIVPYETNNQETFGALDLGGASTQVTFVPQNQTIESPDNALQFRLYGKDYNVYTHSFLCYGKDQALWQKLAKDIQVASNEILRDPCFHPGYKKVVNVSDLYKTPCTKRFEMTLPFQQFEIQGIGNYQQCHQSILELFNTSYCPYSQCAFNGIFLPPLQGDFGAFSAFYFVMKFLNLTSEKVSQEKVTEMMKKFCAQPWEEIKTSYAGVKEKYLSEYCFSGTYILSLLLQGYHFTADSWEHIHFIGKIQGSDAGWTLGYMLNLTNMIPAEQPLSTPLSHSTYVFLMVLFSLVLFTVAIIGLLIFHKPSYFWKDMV

B1: I-394 (antibody, human IgG1, V domains shown)
VH: EVQLQQSGPELVKPGASVKMSCKASGYTFTDYNMHWVKQSHGRTLEWIGYIVPLNGGSTFNQKFKGRATLTVNTSSRTAYMELRSLTSEDSAAYYCARGGTRFAYWGQGTLVTVSA
VL: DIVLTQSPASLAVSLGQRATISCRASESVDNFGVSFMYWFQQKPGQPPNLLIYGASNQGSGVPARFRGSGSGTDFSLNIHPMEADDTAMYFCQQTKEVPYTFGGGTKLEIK
For B1, the binding result (murine CD39 on CHO cells) was “no binding (tested: about 30 µg/ml)” and the “EC50 (read off the curve)” value [1] was ~0.5 µg/mL.
